Laboratory results from patent US4585754A, “Stabilization of proteins and peptides by chemical binding with chondroitin” (Valcor Scientific, Ltd., priority 1984, dated 1986).

Columns and labels:
blood glucose levels = assay: lowering blood glucose levels in mice, bound versus free insulin; format: in vivo, Female CD-1 Swiss white mice; conditions: subcutaneous, fasted mice
Procedure: Female CD-1 Swiss white mice averaging 20 g in weight were fasted overnight and used in groups of four. The insulins were injected subcutaneously, and blood specimens (50 microliters, by retro-orbital bleeding) were taken at intervals of 0.5, 3, 6, and 24 hours.

[1] = native, unmodified protein; cited from earlier work
trypsin = assay: stability against proteolytic digestion by trypsin; format: in vitro ADME; conditions: 50 mcg./ml. trypsin, pH 7.8, 23 C, 10 mg./ml., after just over forty minutes
Procedure: (§1) The SOD-chondroitin sulfate A product was tested for stability against proteolytic digestion. An aqueous solution containing 10 mg./ml. of the product was incubated with 50 mcg./ml. of trypsin at pH 7.8 and 23 C, and aliquots were withdrawn from time to time and the SOD activity determined. For comparison, SOD alone with incubated with trypsin under the same conditions. After just over forty minutes, approximately 88 percent of the SOD-chondroitin product remained in the solution, compared with only about 8 percent of the unprotected SOD. This is a difference in stability of over eight-fold.

pepsin = assay: stability against proteolytic digestion by pepsin; format: in vitro ADME; conditions: pepsin 500 ng./ml., pH 3.5, at two minutes
Procedure: as §1
Inasmuch as trypsin is known to be a very specific protease, cleaving only at the arginine and lysine residues, a further test was carried out according to substantially the same procedure using pepsin, a much more vigorous protease. The pH was kept low (3.5), since the optimum pH for pepsin is known to about 1.0-1.5. Even at the lowest concentration of pepsin tested (500 ng./ml.), digestion was very fast, but there was some degree of protection by the chondroitin compared with unprotected SOD.

Row | Substance | blood glucose level at 24 hours (blood glucose levels; all dose levels, 24 hours) | comatose state (blood glucose levels; doses of 5.7 micrograms and above) | half-life in the body [1] | percent remaining in the solution (SOD activity) (trypsin) | SOD remaining after pepsin digestion (pepsin)
1 | insulin [free insulin] | significant rebound glucose level by 24 hours | comatose in one-half hour | about 15 minutes | – | –
2 | superoxide dismutase [unprotected SOD] | – | – | about five | about 8% | essentially all destroyed
